In patent US20110097262A1 (PIERRE FABRE MEDICAMENT, published 2011):

Target: C-Met-Rluc (R. reniformis, UniProt P08581 25-1390; P27652 1-311)
Assay: cell-based or functional assay

Chain of C-Met-Rluc (P08581 other isoform, or with tags, fused parts or gaps): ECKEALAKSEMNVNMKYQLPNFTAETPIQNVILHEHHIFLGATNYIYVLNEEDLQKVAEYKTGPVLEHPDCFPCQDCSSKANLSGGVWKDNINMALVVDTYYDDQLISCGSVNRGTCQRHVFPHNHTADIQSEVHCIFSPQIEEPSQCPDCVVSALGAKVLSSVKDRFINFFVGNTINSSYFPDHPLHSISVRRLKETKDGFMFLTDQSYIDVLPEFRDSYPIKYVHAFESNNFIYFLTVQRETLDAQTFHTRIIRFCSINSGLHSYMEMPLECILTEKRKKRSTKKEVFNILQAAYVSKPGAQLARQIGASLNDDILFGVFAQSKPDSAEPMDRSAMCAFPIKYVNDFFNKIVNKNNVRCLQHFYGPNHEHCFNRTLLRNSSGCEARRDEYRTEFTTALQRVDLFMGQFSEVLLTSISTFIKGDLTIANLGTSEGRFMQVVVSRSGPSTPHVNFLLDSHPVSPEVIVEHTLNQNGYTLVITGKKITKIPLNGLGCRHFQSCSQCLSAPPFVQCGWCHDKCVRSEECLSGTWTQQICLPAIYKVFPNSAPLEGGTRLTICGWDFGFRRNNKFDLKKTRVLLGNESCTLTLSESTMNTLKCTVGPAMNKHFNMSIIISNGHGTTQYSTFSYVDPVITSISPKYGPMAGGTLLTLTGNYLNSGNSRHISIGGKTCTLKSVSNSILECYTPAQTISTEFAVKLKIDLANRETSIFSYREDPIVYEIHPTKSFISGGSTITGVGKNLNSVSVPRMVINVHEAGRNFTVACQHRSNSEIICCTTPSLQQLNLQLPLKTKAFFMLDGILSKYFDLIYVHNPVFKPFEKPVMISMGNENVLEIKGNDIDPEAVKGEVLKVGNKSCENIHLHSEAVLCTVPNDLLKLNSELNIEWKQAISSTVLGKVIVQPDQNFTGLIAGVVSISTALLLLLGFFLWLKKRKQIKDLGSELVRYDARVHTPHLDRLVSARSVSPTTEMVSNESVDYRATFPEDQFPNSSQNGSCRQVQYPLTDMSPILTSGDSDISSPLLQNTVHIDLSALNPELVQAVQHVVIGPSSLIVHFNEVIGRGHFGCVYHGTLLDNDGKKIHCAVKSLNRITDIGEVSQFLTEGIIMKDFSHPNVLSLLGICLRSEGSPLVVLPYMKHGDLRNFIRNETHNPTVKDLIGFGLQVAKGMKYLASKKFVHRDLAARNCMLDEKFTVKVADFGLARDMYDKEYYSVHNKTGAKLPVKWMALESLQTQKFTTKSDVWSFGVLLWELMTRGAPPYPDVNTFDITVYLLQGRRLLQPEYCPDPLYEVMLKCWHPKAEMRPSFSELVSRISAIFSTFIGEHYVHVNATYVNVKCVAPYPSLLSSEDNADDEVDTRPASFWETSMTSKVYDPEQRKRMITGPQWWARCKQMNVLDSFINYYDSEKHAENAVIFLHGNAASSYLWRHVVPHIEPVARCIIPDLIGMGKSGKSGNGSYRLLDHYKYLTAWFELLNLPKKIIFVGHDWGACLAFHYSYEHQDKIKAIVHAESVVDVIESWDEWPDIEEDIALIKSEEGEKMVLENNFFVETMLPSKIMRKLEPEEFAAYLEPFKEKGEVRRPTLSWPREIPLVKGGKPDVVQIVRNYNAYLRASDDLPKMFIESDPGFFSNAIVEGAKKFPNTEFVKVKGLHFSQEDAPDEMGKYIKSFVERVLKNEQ

B1: [224G11] [MHchim] (antibody, human IgG1, V domains shown)
VH: EVQLQQSGPELVKPGASVKISCKTSGYIFTAYTMHWVRQSLGESLDWIGGIKPNNGLANYNQKFKGKATLTVDKSSSTAYMDLRSLTSEDSAVYYCARSEITTEFDYWGQGTALTVSS
VL: DIVLTQSPASLAVSLGQRATISCRASESVDSYANSFMHWYQQKPGQPPKLLIYRASNLESGIPARFSGSGSRTDFTLTINPVEADDVATYYCQQSKEDPLTFGSGTKLEMKR
B1 was tested, and the “BRET signal by Mab alone, c-Met activation model” value (from here on “BRET signal by Mab alone”) was 5.1%.

B2: [224G11] [MUP9Hchim] (antibody, human IgG1, V domains shown)
VH: B1 VH
VL: B1 VL
For B2, the “BRET signal by Mab alone” value was 7.6%.

B3: [224G11] [MMCHchim] (antibody, human IgG1, V domains shown)
VH: B1 VH
VL: B1 VL
B3 was tested, and the “BRET signal by Mab alone” value was -2%.

B4: [224G11][TH7chim] (antibody, human IgG1)
heavy: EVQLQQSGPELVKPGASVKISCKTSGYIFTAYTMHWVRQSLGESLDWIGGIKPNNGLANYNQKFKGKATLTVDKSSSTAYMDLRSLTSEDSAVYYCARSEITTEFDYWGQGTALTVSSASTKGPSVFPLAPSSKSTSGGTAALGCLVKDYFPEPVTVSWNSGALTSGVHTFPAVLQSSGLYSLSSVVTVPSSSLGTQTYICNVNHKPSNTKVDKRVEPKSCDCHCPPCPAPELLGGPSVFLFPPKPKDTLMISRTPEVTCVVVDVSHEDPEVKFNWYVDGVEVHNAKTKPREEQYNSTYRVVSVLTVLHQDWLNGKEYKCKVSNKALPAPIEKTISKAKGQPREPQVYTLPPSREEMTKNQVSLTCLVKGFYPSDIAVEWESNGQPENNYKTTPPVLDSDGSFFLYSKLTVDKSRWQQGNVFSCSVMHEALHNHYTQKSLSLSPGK
light: DIVLTQSPASLAVSLGQRATISCRASESVDSYANSFMHWYQQKPGQPPKLLIYRASNLESGIPARFSGSGSRTDFTLTINPVEADDVATYYCQQSKEDPLTFGSGTKLEMKRTVAAPSVFIFPPSDEQLKSGTASVVCLLNNFYPREAKVQWKVDNALQSGNSQESVTEQDSKDSTYSLSSTLTLSKADYEKHKVYACEVTHQGLSSPVTKSFNRGEC
In the case of B4, the “BRET signal by Mab alone” value is reported as -6.9%.

B5: [224G11] [IgG2chim] (antibody)
heavy: EVQLQQSGPELVKPGASVKISCKTSGYIFTAYTMHWVRQSLGESLDWIGGIKPNNGLANYNQKFKGKATLTVDKSSSTAYMDLRSLTSEDSAVYYCARSEITTEFDYWGQGTALTVSSASTKGPSVFPLAPCSRSTSESTAALGCLVKDYFPEPVTVSWNSGALTSGVHTFPAVLQSSGLYSLSSVVTVPSSNFGTQTYTCNVDHKPSNTKVDKTVERKCCVECPPCPAPPVAGPSVFLFPPKPKDTLMISRTPEVTCVVVDVSHEDPEVQFNWYVDGVEVHNAKTKPREEQFNSTFRVVSVLTVVHQDWLNGKEYKCKVSNKGLPAPIEKTISKTKGQPREPQVYTLPPSREEMTKNQVSLTCLVKGFYPSDIAVEWESNGQPENNYKTTPPMLDSDGSFFLYSKLTVDKSRWQQGNVFSCSVMHEALHNHYTQKSLSLSPG
light: B4 light
B5 was tested, and the “inhibition of HGF induced BRET signal, c-Met activation model” value was 66.3%.
